# Results from paper PMC2928791 (PLoS Pathogens, 2010).
# T1: PV GST-2C^ATPase (poliovirus (PV; the paper's PV is type …, UniProt P03300 1128-1456)
# T1 sequence: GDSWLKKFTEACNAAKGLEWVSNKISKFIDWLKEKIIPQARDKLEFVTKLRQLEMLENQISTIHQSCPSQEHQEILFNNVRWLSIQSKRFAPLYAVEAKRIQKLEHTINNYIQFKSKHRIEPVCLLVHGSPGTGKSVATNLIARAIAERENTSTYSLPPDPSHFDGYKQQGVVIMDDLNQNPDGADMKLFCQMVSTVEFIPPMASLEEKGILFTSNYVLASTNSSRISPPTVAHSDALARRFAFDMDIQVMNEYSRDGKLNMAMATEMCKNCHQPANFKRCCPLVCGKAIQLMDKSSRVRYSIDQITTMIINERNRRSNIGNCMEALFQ
# B1: PV His-tagged VP3 (natural protein)
# chain: GLPVMNTPGSNQYLTADNFQSPCALPEFDVTPPIDIPGEVKNMMELAEIDTMIPFDLSATKKNTMEMYRVRLSDKPHTDDPILCLSLSPASDPRLSHTMLGEILNYYTHWAGSLKFTFLFCGFMMATGKLLVSYAPPGADPPKKRKEAMLGTHVIWDIGLQSSCTMVVPWISNTTYRQTIDDSFTEGGYISVFYQTRIVVPLSTPREMDILGFVSACNDFSVRLLRDTTHIEQKALAQ
# Tests used:
# [1] = target: CAV20 non-structural protein 2C^ATPase (wt) (coxsackie A virus 20 (CAV20)); experiment: co-IP
# PV GST-2C^ATPase = target: T1, PV GST-2C^ATPase; experiment: […] (50 mM Tris-HCl pH 7.5, 140 mM NaCl, 0.1% Triton X-100, […]; settings: both partners purified
Molecule,percent of the level in the CAV20 2C^ATPase and CAV20 VP3 Co-IP reaction [1] [%],binding result (PV GST-2C^ATPase)
CAV20 structural protein VP3 (wt) (natural protein),100,
B1,,binds
